Results as given in the supplement of paper PMC12667976.
± gives the standard error.

B1: library; numbered along this chain (parent)
chain: MATDAALRRLLRLHRTEIAVAVDSAFPLLHALADHDVVPEDKFQETLHLKEKEGCPQAFHALLSWLLTQDSTAILDFWRVLFKDYNLERYGRLQPILDSFPKDVDLSQPRKGRKPPAVPKALVPPPRLPTKRKASEEARAAAPAALTPRGTASPGSQLKAKPPKKPESSAEQQRLPLGNGIQTMSASVQRAVAMSSGDVPGARGAVEGILIQQVFESGGSKKCIQVGGEFYTPSKFEDSGSGKNKARSSSGPKPLVRAKGAQGAAPGGGEARLGQQGSVPAPLALPSDPQLHQKNEDECAVCRDGGELICCDGCPRAFHLACLSPPLREIPSGTWRCSSCLQATVQEVQPRAEEPRPQEPPVETPLPPGLRSAGEEVRGPPGEPLAGMDTTLVYKHLPAPPSAAPLPGLDSSALHPLLCVGPEGQQNLAPGARCGVCGDGTDVLRCTHCAAAFHWRCHFPAGTSRPGTGLRCRSCSGDVTPAPVEGVLAPSPARLAPGPAKDDTASHEPALHRDDLESLLSEHTFDGILQWAIQSMARPAAPFPS

Variants of: B1
Test: AIRE transcriptional activation functional score (insulin promoter-GFP; nonsense median 0, synonymous median 1) (normalised score); higher = higher AIRE activity (more reporter activation)
Conditions: with insulin promoter-GFP reporter in HEK293
Description: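 Deep mutational scan of full-length human AIRE (codon-optimized cDNA, DT-POPCode NNN libraries over three regions) integrated at a Bxb1 landing pad in HEK293 cells carrying an insulin core promoter-GFP reporter at a Flp-In site. Cells were sorted for the top 10% GFP about 14 days after transfection. Variant frequency log-ratios (select vs non-select, TileSeq) were rescaled so that the nonsense median is 0 and the synonymous median is 1, then averaged over biological replicates.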

In order of falling “AIRE transcriptional activation functional score” value:
1. Q276I  1.83 ± 0.08
2. G269W  1.81 ± 0.065
3. Q275W  1.74 ± 0.026
4. L273Q  1.72 ± 0.43
5. A271H  1.66 ± 0.047
6. E270P  1.64 ± 0.2
7. A271W  1.6 ± 0.061
8. E270H  1.56 ± 0.082
9. Q276N  1.52 ± 0.29
10. G269T  1.51 ± 0.13
11. G274W  1.46 ± 0.045
12. G277A  1.46 ± 0.16
13. G269P  1.44 ± 0.093
14. E270L  1.41 ± 0.26
15. G274H  1.4 ± 0.14
16. Q276G  1.39 ± 0.29
17. E270Y  1.38 ± 0.056
18. G277C  1.38 ± 0.068
19. A271M  1.38 ± 0.051
20. L273W  1.37 ± 0.051
21. E270D  1.37 ± 0.18
22. R272N  1.37 ± 0.067
23. G269L  1.36 ± 0.38
24. E270V  1.36 ± 0.34
25. E270W  1.36 ± 0.024
26. Q275Y  1.35 ± 0.22
27. S278G  1.34 ± 0.16
28. Q275D  1.33 ± 0.19
29. R272M  1.31 ± 0.061
30. G277E  1.3 ± 0.2
31. R272C  1.3 ± 0.18
32. L273Y  1.28 ± 0.28
33. Q276C  1.26 ± 0.039
34. Q276H  1.26 ± 0.15
35. Q276Y  1.26 ± 0.065
36. Q275E  1.26 ± 0.19
37. G274K  1.24 ± 0.055
38. G277I  1.24 ± 0.12
39. A271L  1.24 ± 0.29
40. G277F  1.23 ± 0.49
41. G277K  1.22 ± 0.26
42. S278H  1.22 ± 0.16
43. A271D  1.22 ± 0.21
44. G277R  1.21 ± 0.25
45. R272D  1.21 ± 0.23
46. G269S  1.2 ± 0.23
47. E270M  1.2 ± 0.07
48. G277N  1.2 ± 0.24
49. L273M  1.19 ± 0.068
50. Q275P  1.19 ± 0.28
51. E270Q  1.15 ± 0.33
52. G274D  1.14 ± 0.15
53. Q276T  1.14 ± 0.16
54. G269R  1.13 ± 0.27
55. Q276A  1.12 ± 0.1
56. Q275I  1.12 ± 0.15
57. Q276D  1.11 ± 0.42
58. L273P  1.11 ± 0.34
59. E270G  1.11 ± 0.2
60. Q275F  1.11 ± 0.12
61. Q275T  1.11 ± 0.33
62. A271N  1.11 ± 0.13
63. G277V  1.1 ± 0.19
64. A271I  1.1 ± 0.18
65. A271E  1.1 ± 0.12
66. A271K  1.1 ± 0.14
67. G274S  1.09 ± 0.32
68. R272F  1.09 ± 0.24
69. A271S  1.09 ± 0.17
70. A271V  1.09 ± 0.14
71. E270C  1.08 ± 0.53
72. Q275C  1.08 ± 0.075
73. R272I  1.08 ± 0.23
74. R272E  1.08 ± 0.17
75. G274Y  1.07 ± 0.028
76. L273I  1.07 ± 0.28
77. Q275K  1.06 ± 0.11
78. G269V  1.05 ± 0.17
79. G274V  1.05 ± 0.16
80. Q276P  1.05 ± 0.092
81. Q276F  1.05 ± 0.044
82. Q275M  1.04 ± 0.033
83. Q275R  1.03 ± 0.15
84. Q275L  1.03 ± 0.14
85. L273V  1.02 ± 0.25
86. R272S  1.02 ± 0.3
87. A271P  1.02 ± 0.28
88. E270N  1.01 ± 0.45
89. G277M  1.01 ± 0.086
90. Q275N  1.01 ± 0.25
91. Q275V  1.01 ± 0.2
92. Q275H  1.01 ± 0.13
93. R272L  1.01 ± 0.29
94. G274L  1 ± 0.27
95. G274N  1 ± 0.34
96. Q276M  1 ± 0.08
97. S278F  1 ± 0.2
98. A271C  1 ± 0.56
99. G274R  0.983 ± 0.14
100. L273F  0.977 ± 0.078
101. E270F  0.977 ± 0.13
102. L273S  0.975 ± 0.53
103. L273A  0.967 ± 0.28
104. G277L  0.959 ± 0.17
105. Q276K  0.954 ± 0.22
106. L273G  0.95 ± 0.18
107. R272Q  0.947 ± 0.41
108. G274C  0.942 ± 0.21
109. R272T  0.941 ± 0.33
110. G274I  0.929 ± 0.32
111. Q276S  0.925 ± 0.17
112. G277H  0.919 ± 0.44
113. R272V  0.896 ± 0.33
114. Q275G  0.894 ± 0.33
115. R272W  0.893 ± 0.044
116. G274F  0.89 ± 0.068
117. G274A  0.889 ± 0.18
118. A271F  0.885 ± 0.31
119. R272P  0.879 ± 0.33
120. Q276V  0.873 ± 0.11
121. Q276W  0.869 ± 0.12
122. L273N  0.862 ± 0.052
123. G274T  0.86 ± 0.15
124. S278D  0.859 ± 0.21
125. Q275A  0.853 ± 0.14
126. S278A  0.851 ± 0.21
127. G269Q  0.849 ± 0.18
128. A271T  0.847 ± 0.23
129. R272G  0.842 ± 0.29
130. Q276E  0.831 ± 0.28
131. A271Y  0.83 ± 0.071
132. Q275S  0.826 ± 0.52
133. G277Q  0.825 ± 0.064
134. Q276R  0.822 ± 0.37
135. L273E  0.817 ± 0.051
136. E270S  0.795 ± 0.13
137. E270A  0.795 ± 0.25
138. Q276L  0.779 ± 0.25
139. L273T  0.77 ± 0.41
140. S278E  0.763 ± 0.2
141. G277T  0.758 ± 0.045
142. L273C  0.741 ± 0.15
143. E270K  0.735 ± 0.032
144. S278C  0.735 ± 0.17
145. G274P  0.734 ± 0.42
146. E270R  0.723 ± 0.14
147. A271G  0.722 ± 0.38
148. A271R  0.714 ± 0.37
149. R272A  0.71 ± 0.27
150. A271Q  0.693 ± 0.16
151. E270T  0.69 ± 0.38
152. R272Y  0.677 ± 0.23
153. G269Y  0.676 ± 0.18
154. L273R  0.646 ± 0.2
155. G274E  0.611 ± 0.097
156. G269M  0.571 ± 0.041
157. G277Y  0.553 ± 0.1
158. E270I  0.55 ± 0.37
159. G277P  0.526 ± 0.28
160. L273D  0.505 ± 0.15
161. R272K  0.494 ± 0.23
162. G277S  0.459 ± 0.24
163. R272H  0.444 ± 0.15
164. L273K  0.434 ± 0.14
165. G269N  0.306 ± 0.089
166. L273H  0.264 ± 0.23
167. G274Q  0.131 ± 0.15
